Assay results as given in patent publication US20070275903A1 (Bristol-Myers Squibb, published 2007).
Starred links: 1 amine or outer side, 2 acyl side, 3 side chain; linkers in the order of their positions; H or OH if unused. Suc = O=C(CCC(=O)[*:2])[*:1]; Dox = doxorubicin

Experiments:
Suc-Leu-Tyr-Leu-Dox = system: T1, Suc-Leu-Tyr-Leu-Dox
T1 sequence: LYL

Suc-Phe-Gly-Leu-Dnr = system: T2, Suc-Phe-Gly-Leu-Dnr
T2 sequence: FGL

Suc-Leu-Ala-Leu-Dnr = system: T3, Suc-Leu-Ala-Leu-Dnr
T3 sequence: LAL

Suc-Leu-Thr-Leu-Dnr = system: T4, Suc-Leu-Thr-Leu-Dnr
T4 sequence: LTL

Suc-Leu-Ala-Gly-Dox = system: T5, Suc-Leu-Ala-Gly-Dox
T5 sequence: LAG

Suc-Tyr-Ala-Leu-Dnr = system: T6, Suc-Tyr-Ala-Leu-Dnr
T6 sequence: YAL

Suc-Met-Gly-Ile-Dnr = system: T7, Suc-Met-Gly-Ile-Dnr
T7 sequence: MGI

Suc-Tyr-Ala-Ile-Dnr = system: T8, Suc-Tyr-Ala-Ile-Dnr
T8 sequence: YAI

Suc-Met-Gly-Leu-Dnr = system: T9, Suc-Met-Gly-Leu-Dnr
T9 sequence: MGL

Suc-Nle-Ala-Leu-Dnr = system: T10, Suc-Nle-Ala-Leu-Dnr
T10 sequence: XAL

Suc-Leu-Tyr-Leu-Dnr = system: T11, Suc-Leu-Tyr-Leu-Dnr
T11 sequence: LYL

Suc-Met-Ala-Leu-Dox = system: T12, Suc-Met-Ala-Leu-Dox
T12 sequence: MAL

Suc-Nle-Gly-Phe-Dnr = system: T13, Suc-Nle-Gly-Phe-Dnr
T13 sequence: XGF

Pyg-Leu-Ala-Leu-Dnr = system: T14, Pyg-Leu-Ala-Leu-Dnr
T14 sequence: LAL

Suc-Leu-Ala-Leu-Dox = system: T15, Suc-Leu-Ala-Leu-Dox
T15 sequence: LAL

Suc-Met-Gly-Phe-Dnr = system: T16, Suc-Met-Gly-Phe-Dnr
T16 sequence: MGF

Suc-Phe-Gly-Phe-Dnr = system: T17, Suc-Phe-Gly-Phe-Dnr
T17 sequence: FGF

Suc-Met-Ala-Leu-Dnr = system: T18, Suc-Met-Ala-Leu-Dnr
T18 sequence: MAL

Suc-Phe-Gly-Ile-Dnr = system: T19, Suc-Phe-Gly-Ile-Dnr
T19 sequence: FGI

Suc-βAla-Leu-Ala-Leu-Dox = system: T20, Suc-βAla-Leu-Ala-Leu-Dox
T20 sequence: ALAL

[1] = molecular target: CD10 expressed on Ramos and Namalwa B-cell lines (UniProt P08473 2-750, limits assumed); assay: cell-based or functional assay
Chain of CD10 expressed on Ramos and Namalwa B-cell lines (P08473 2-750 limits assumed): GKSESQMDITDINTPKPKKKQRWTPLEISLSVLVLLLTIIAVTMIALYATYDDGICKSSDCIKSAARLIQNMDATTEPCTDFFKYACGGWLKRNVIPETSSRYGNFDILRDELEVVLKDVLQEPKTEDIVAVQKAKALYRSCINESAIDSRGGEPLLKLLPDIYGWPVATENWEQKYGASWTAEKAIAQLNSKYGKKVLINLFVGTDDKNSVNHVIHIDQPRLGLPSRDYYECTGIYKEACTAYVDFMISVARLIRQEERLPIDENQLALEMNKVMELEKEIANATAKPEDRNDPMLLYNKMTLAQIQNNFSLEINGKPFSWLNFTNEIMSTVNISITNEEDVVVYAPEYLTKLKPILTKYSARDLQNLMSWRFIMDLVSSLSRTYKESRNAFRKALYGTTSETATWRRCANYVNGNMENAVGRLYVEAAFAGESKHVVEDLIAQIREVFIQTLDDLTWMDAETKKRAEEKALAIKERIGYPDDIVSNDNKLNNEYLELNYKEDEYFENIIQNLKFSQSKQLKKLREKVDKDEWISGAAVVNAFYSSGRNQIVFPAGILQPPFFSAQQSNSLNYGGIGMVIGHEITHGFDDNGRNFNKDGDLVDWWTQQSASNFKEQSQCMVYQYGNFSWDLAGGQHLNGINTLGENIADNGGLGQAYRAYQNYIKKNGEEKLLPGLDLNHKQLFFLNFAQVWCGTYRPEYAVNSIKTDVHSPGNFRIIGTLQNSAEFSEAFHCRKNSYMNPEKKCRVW

Molecule: trouase (carcinoma cell enzyme preparations; HeLa cell anion exchange fraction pool)
- cleavage by carcinoma enzyme preparations (HPLC, 2 hr at 37 C) (Suc-Leu-Tyr-Leu-Dox): cleaved by the trouase under the given conditions
- Relative Cleavage % (Suc-Phe-Gly-Leu-Dnr): 24%
- cleavage by carcinoma enzyme preparations (HPLC, 2 hr at 37 C) (Suc-Phe-Gly-Leu-Dnr): cleaved by the trouase under the given conditions
- Relative Cleavage % (Suc-Leu-Ala-Leu-Dnr): 76%
- cleavage by carcinoma enzyme preparations (HPLC, 2 hr at 37 C) (Suc-Leu-Ala-Leu-Dnr): cleaved by the trouase under the given conditions
- cleavage by carcinoma enzyme preparations (HPLC, 2 hr at 37 C) (Suc-Leu-Thr-Leu-Dnr): cleaved by the trouase under the given conditions
- Relative Cleavage % (Suc-Leu-Ala-Gly-Dox): 40%
- cleavage by carcinoma enzyme preparations (HPLC, 2 hr at 37 C) (Suc-Leu-Ala-Gly-Dox): cleaved by the trouase under the given conditions
- Relative Cleavage % (Suc-Tyr-Ala-Leu-Dnr): 77%
- Relative Cleavage % (Suc-Met-Gly-Ile-Dnr): 46%
- cleavage by carcinoma enzyme preparations (HPLC, 2 hr at 37 C) (Suc-Met-Gly-Ile-Dnr): cleaved by the trouase under the given conditions
- Relative Cleavage % (Suc-Tyr-Ala-Ile-Dnr): 25%
- cleavage by carcinoma enzyme preparations (HPLC, 2 hr at 37 C) (Suc-Tyr-Ala-Ile-Dnr): cleaved by the trouase under the given conditions
- Relative Cleavage % (Suc-Met-Gly-Leu-Dnr): 55%
- cleavage by carcinoma enzyme preparations (HPLC, 2 hr at 37 C) (Suc-Met-Gly-Leu-Dnr): cleaved by the trouase under the given conditions
- cleavage by carcinoma enzyme preparations (HPLC, 2 hr at 37 C) (Suc-Nle-Ala-Leu-Dnr): cleaved by the trouase under the given conditions
- cleavage by carcinoma enzyme preparations (HPLC, 2 hr at 37 C) (Suc-Leu-Tyr-Leu-Dnr): cleaved by the trouase under the given conditions
- Relative Cleavage % (Suc-Met-Ala-Leu-Dox): 49%
- cleavage by carcinoma enzyme preparations (HPLC, 2 hr at 37 C) (Suc-Met-Ala-Leu-Dox): cleaved by the trouase under the given conditions
- Relative Cleavage % (Suc-Nle-Gly-Phe-Dnr): 17%
- Relative Cleavage % (Pyg-Leu-Ala-Leu-Dnr): 76%
- cleavage by carcinoma enzyme preparations (HPLC, 2 hr at 37 C) (Pyg-Leu-Ala-Leu-Dnr): cleaved by the trouase under the given conditions
- Relative Cleavage % (Suc-Leu-Ala-Leu-Dox): 62%
- cleavage by carcinoma enzyme preparations (HPLC, 2 hr at 37 C) (Suc-Leu-Ala-Leu-Dox): cleaved by the trouase under the given conditions
- Relative Cleavage % (Suc-Met-Gly-Phe-Dnr): 29%
- cleavage by carcinoma enzyme preparations (HPLC, 2 hr at 37 C) (Suc-Met-Gly-Phe-Dnr): cleaved by the trouase under the given conditions
- Relative Cleavage % (Suc-Phe-Gly-Phe-Dnr): 12%
- cleavage by carcinoma enzyme preparations (HPLC, 2 hr at 37 C) (Suc-Phe-Gly-Phe-Dnr): cleaved by the trouase under the given conditions
- Relative Cleavage % (Suc-Met-Ala-Leu-Dnr): 69%
- cleavage by carcinoma enzyme preparations (HPLC, 2 hr at 37 C) (Suc-Met-Ala-Leu-Dnr): cleaved by the trouase under the given conditions
- Relative Cleavage % (Suc-Phe-Gly-Ile-Dnr): 54%
- cleavage by carcinoma enzyme preparations (HPLC, 2 hr at 37 C) (Suc-Phe-Gly-Ile-Dnr): cleaved by the trouase under the given conditions

Molecule: purified Porcine Kidney CD10 (Elastin Products Company)
- % hydrolysis/10 hr (Suc-Leu-Ala-Gly-Dox): 0%
- Fraction hydrolyzed relative to standard (Suc-Leu-Ala-Gly-Dox): 0
- % hydrolysis/10 hr (Suc-Leu-Ala-Leu-Dox): 8.3%
- Fraction hydrolyzed relative to standard (Suc-Leu-Ala-Leu-Dox): 0.75
- % hydrolysis/10 hr (Suc-βAla-Leu-Ala-Leu-Dox): 10.9%
- Fraction hydrolyzed relative to standard (Suc-βAla-Leu-Ala-Leu-Dox): 1

Molecule: Suc-Leu-Ala-Gly-Dox [Suc-Leu-Ala-Gly-Dox]
- IC50 (µM), 3H-thymidine incorporation, Namalwa (CD10pos) cells [1]: 17.3 µM
- IC50 (µM), 3H-thymidine incorporation, Ramos (CD10pos) cells [1]: 22.7 µM
- Ratio of IC50 Ball-1 (CD10neg):Namalwa (CD10pos) [1]: 1
- Ratio of IC50 Ball-1 (CD10neg):Ramos (CD10pos) [1]: 1

Molecule: Suc-Leu-Ala-Leu-Dox [Suc-Leu-Ala-Leu-Dox]
- IC50 (µM), 3H-thymidine incorporation, Namalwa (CD10pos) cells [1]: 2.27 µM
- IC50 (µM), 3H-thymidine incorporation, Ramos (CD10pos) cells [1]: 2.63 µM
- Ratio of IC50 Ball-1 (CD10neg):Namalwa (CD10pos) [1]: 35
- Ratio of IC50 Ball-1 (CD10neg):Ramos (CD10pos) [1]: 30
